The nature of this series: affinity of cytochrome P450 2B6 protein for cyclophosphamide (CPA) and Vmax. Type of series: biochemical, human. From the text:
In a particularly advantageous embodiment, said variants and fragments have an affinity for CPA that is identical, substantially identical or greater than that of the mutant human cytochrome P450 2B6 protein (CYP2B6*) of SEQ ID No. 1. Methods making it possible to assay said activity and said affinity are well known to a person skilled in the art and are particularly described in Nguyen et al., Mol. Pharmacol., 2008, 73: 1,122-1,133.

B1: CYP2B6*: mutant human cytochrome P450 2B6 protein of SEQ ID No. 1 with 114V, 199M and 477W residues (protein, listed as Homo sapiens)
chain: MELSVLLFLALLTGLLLLLVQRHPNTHDRLPPGPRPLPLLGNLLQMDRRGLLKSFLRFREKYGDVFTVHLGPRPVVMLCGVEAIREALVDKAEAFSGRGKIAMVDPFFRGYGVVFANGNRWKVLRRFSVTTMRDFGMGKRSVEERIQEEAQCLIEELRKSKGALMDPTFLFQSITANIICSIVFGKRFHYQDQEFLKMMNLFYQTFSLISSVFGQLFELFSGFLKYFPGAHRQVYKNLQEINAYIGHSVEKHRETLDPSAPKDLIDTYLLHMEKEKSNAHSEFSHQNLNLNTLSLFFAGTETTSTTLRYGFLLMLKYPHVAERVYREIEQVIGPHRPPELHDRAKMPYTEAVIYEIQRFSDLLPMGVPHIVTQHTSFRGYIIPKDTEVFLILSTALHDPHYFEKPDAFNPDHFLDANGALKKTEAFIPFSLGKRICLGEGIARAELFLFFTTILQNFSMASPVAPEDIDLTPQECGWGKIPPTYQIRFLPR
For the molecule B1, the “affinity for CPA relative to the wild-type protein (CYP2B6 WT)” value (fold greater than CYP2B6 WT, substitutions I114V, L199M, V477W) was “more than 8 times”. In addition, the “Vmax compared with wild-type protein” value (versus CYP2B6 WT, substrate CPA) is “same Vmax”.
